The test addresses recombinant protein carbonic anhydrase 12 (R&D Systems) (Homo sapiens (Human), UniProt O43570 25-291, limits assumed).

recombinant protein carbonic anhydrase 12 (R&D Systems), sequence (O43570 25-291 limits assumed): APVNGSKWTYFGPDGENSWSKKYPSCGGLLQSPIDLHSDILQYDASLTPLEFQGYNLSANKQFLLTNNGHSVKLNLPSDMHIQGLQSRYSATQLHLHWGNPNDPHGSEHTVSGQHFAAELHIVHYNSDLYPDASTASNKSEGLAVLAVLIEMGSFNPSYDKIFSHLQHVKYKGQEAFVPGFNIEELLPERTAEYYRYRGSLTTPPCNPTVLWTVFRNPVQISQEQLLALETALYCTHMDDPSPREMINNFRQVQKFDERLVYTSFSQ

B1: clone ID 1 (phage displayed scFv) (scFv)
chain: EVQLVESGGGLVQPGGSLRLSCAASGYSYTDYNIYWVRQAPGKGLEWVGYIDPANGDTTYNQKFKGRATISVDKSKNTAYLQMNSLRAEDTAVYYCSRPIYYGAYWYFDVWGQGTLVTVSSDIQMTQSPSSLSASVGDRVTITCRASSPVTYMHWYQQKPGKAPKPWIYATSSLAPGVPSRFSGSGSGTDFTLTISSLQPEDFATYYCQQWSSNPLTFGQGTKVEIK
With B1, the “ELISA signal relative to the 4B4 chimeric antibody” value is 1.5 times.

(Values after patent publication US20190276557A1 (APROGEN KIC, published 2019).)
